Assay [1] deals with T1, hu-CD96 (soluble, isoform 2 extracellular domain) (human, UniProt P40200 22-516, biotinylated in Octet and blocking ELISA).
T1 construct: the assays name only hu-CD96; also called hCD96; biotinylated hu-CD96
T1 sequence: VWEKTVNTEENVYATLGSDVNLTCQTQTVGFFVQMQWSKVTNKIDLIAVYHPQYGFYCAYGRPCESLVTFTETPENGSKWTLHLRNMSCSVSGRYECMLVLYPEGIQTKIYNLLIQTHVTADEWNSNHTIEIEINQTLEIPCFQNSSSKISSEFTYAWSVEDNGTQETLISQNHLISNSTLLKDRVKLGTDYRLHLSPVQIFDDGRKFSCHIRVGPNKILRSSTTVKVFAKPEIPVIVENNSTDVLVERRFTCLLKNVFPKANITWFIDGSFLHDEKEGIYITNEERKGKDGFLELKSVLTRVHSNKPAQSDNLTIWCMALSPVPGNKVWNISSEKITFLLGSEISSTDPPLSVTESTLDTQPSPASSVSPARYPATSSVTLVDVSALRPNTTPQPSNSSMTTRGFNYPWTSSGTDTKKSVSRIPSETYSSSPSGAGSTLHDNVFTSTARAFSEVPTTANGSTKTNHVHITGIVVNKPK
The experiment in a line: ELISA, blocks biotin-CD96 binding to coated hu-CD155-mFc. As for the experimental part:
The selected 5 affinity matured Fab variants of mAb1.v7 Fab were assayed for blocking of human CD155 (hu-CD155) receptor by ELISA as follows. Briefly, 96-well MAXISORP® flat bottom plates (Thermofisher, Cat #439454) were coated overnight at 4° C. with 2 µg/mL goat anti-mouse Fc (Thermofisher, Cat #31168) in PBS. After removing the coating solution, unspecific binding was blocked with PBS containing 1% bovine serum albumin (BSA) and incubation at room temperature for one hour. Plates were then washed five times in PBS with 0.05% TWEEN®-20 (wash buffer) and added […] hu-CD155-mFc in PBS for 1 hour in room temperature. During blocking period, 50 µL/well of 4 nM biotinylated hu-CD96 or 40 nM biotinylated cy-CD96 with serial dilution of the Fab variants 50 µL/well (starting at 2 µM, 1:3 dilution) for two hours at room temperature with PBS containing 0.5% BSA and 0.05% Tween 20 (ELISA buffer) in NUNC F plate (Thermofisher, Cat #269620). Then transferred the antigen-antibody mix solution 80 µL/well into hu-CD155-mFc coated wells at room temperature for 15 min. Plates were then washed with wash buffer to which was added 50 µL/well Streptavidin poly-HRP (Thermofisher, Cat #21140) diluted 1:5000 in ELISA buffer at room temperature for one hour with agitation. […] Enzymatic color development was stopped with 50 µL/well of TMB stop solution (VWR, Cat #95059-200). Plates were analyzed with a SpectraMax i3X plate reader (Molecular Devices) at 450 nm. […] The blocking $IC50$ values for the mAbv1.7 and the 5 selected affinity matured Fab variants (mAb1.v7.2, mAb1.v7.9, mAb1.v7.16, mAb1.v7.48, mAb1.v7.70) are summarized in Table 10 (above).
In general terms: An ELISA detects its analyte on a solid surface through an enzyme-linked reagent.

In assay [2] the target is T1, hu-CD96 (soluble, isoform 2 …). The experiment in a line: phage competition ELISA, soluble CD96 vs coated hu-CD96. The protocol:
192 colonies from most stringent selections (biotinylated 0.1 nM of hu-CD96 or cy-CD96 with 1000× non-biotinylated human or cy-CD96) were grown in 400 µL 2YT with 4 µL helper phage M13KO7 overnight at 37° C. with shaking. After spinning down the pellet, the phage supernatant was diluted 1:1 with 2 nM hu-CD96, 20 nM cy-CD96 and ELISA buffer (0.5% BSA and 0.05% TWEEN®20 in PBS) in total […] and incubated for two hours at room temperature with agitation. The […] of mixture was transferred to hu-CD96 coated plate for 15 min to capture unbound phage. The plate was washed with wash buffer (0.05% TWEEN®20 in PBS), and HRP-conjugated anti-M13 antibody (Sino biological, Cat #11973-MM05-H-50) was added in ELISA buffer for 30 min. […] Enzymatic color development was stopped using TMB stop solution (VWR, Cat #95059-200). Plates were analyzed with a SpectraMax i3X plate reader (Molecular Devices). The % inhibition was calculated by the $OD450$ of wells with hu-CD96/cy-CD96 competitor divided by $OD450$ of wells with buffer alone. The lower % inhibition indicated higher phage $IC50$ against hu-CD96 or cy-CD96.
Selected top inhibition % phage variants from single spot competition were purified from culture supernatants. The optimal phage concentration was incubated with serially-diluted hu-CD96 or cy-CD96 in ELISA buffer in NUNC F plate for two hours. The […] of the mixture was transferred to hu-CD96 coated wells for 15 min to capture unbound phage. The plate was washed with wash buffer (0.05% TWEEN®20 in PBS), and HRP-conjugated anti-M13 antibody (Sino biological, Cat #11973-MM05-H-50) was added in ELISA buffer for 30 min. The plates were washed and developed as described above. The absorbance at 450 nm was plotted as a function of antigen concentration in solution to determine phage $IC50$.

Assay [3] shares this target. The experiment in a line: BLI (Octet), biotin-CD96 on SA, Fab analyte. As for the experimental part:
The binding affinity of the generated Fab variants of mAb1.v7 for hu-CD96 and cy-CD96 was determined by OCTET (Pall ForteBio) Bio-Layer Interferometry (BLI) binding analysis. The biotinylated hu-CD96 or biotinylated cy-CD96 was diluted to a final concentration 10 µg/mL in experimental buffer (PBS buffer with 0.01% Tween-20) and immobilized on the Streptavidin Capture (SA) biosensors (Pall ForteBio). Three-fold serial dilutions of the mAb1.v7 Fab variants starting at 1 µM as analytes were diluted in the experimental buffer (PBS buffer with 0.01% Tween-20). The biosensors were equilibrated in experimental buffer at 30° C. for ten minutes prior to starting the experiment. The kinetics experiment was performed with the following steps, where the step name, solution and time are listed: Baseline (buffer—60 seconds), Loading (biotinylated antigen—200 seconds), Baseline 2 (buffer—minimum 120 seconds), Association (analyte—200-300 seconds) and Dissociation (buffer—1000 seconds). The resulting BLI signal from analyte association and dissociation from the […] was analyzed using the Octet Data Analysis software (Pall ForteBio). First a reference subtraction was performed on all recorded traces using the reference well (biosensor that underwent same steps as experimental wells but no analyte for the Association step) and then all the traces were aligned to the beginning of the Association step. The entirety of the Association and Dissociation steps were used in a Global fit (minimum of four analyte concentration traces) in a 1:1 binding model to calculate the K_D values for the 16 selected individual mAb1.v7 Fab variants as summarized in Table 9 (below).

B1: mAb1.v7 Fab (Fab, V domains shown)
VH: EVQLVQSGAEVKKPGASVKVSCKASGFTFTNNWMHWVRQAPGQGLEWIGMIHPNSGITNINEKFKNRVTMTTDTSTSTAYMELRSLRSEDTAVYYCRSDGTYEGYFDYWGQGTLVTVSS
VL: DIQLTQSPSSLSASVGDRVTITCKASQNVGTAIVWYQQKPGKAPKVLIYSASTRYTGVPSRFSGSGSGTDFTLTISSLQPEDFATYYCQQYSSSPLTFGQGTKVEIK
For the molecule B1, the “apparent IC50 (pooled screen)” value in assay [1] worked out at 0.74 nM; in assay [2] it was 0.5 nM. The “apparent Kd (pooled screen)” value in assay [3] is 76 nM.

B2: mAb1.v7.70 Fab (Fab, V domains shown)
VH: EVQLVQSGAEVKKPGASVKVSCKASGFTFTNRWMHWVRQAPGQGLEWIGMIHANSGITNINEKFKNRVTMTTDTSTSTAYMELRSLRSEDTAVYYCRSDGVYEGYFDYWGQGTLVTVSS
VL: DIQLTQSPSSLSASVGDRVTITCKASQNVGTAIVWYQQKPGKAPKVLIYSASTRYTGVPSRFSGSGSGTDFTLTISSLQPEDFATYYCQQYSSSPLTFGQGTKVEIK
notes: also called N32R/P52aA/T97V
Take B2: the IC50 in assay [1] was 0.8 nM; in assay [2], 0.14 nM. Moreover, the Kd in assay [3] was around 0.1 nM.

B3: mAb1.v7.2 Fab (Fab, V domains shown)
VH: EVQLVQSGAEVKKPGASVKVSCKASGFTFTNNWRHWVRQAPGQGLEWIGMIHFNSGITNINEKFKNRVTMTTDTSTSTAYMELRSLRSEDTAVYYCRSDGVYEGYFDYWGQGTLVTVSS
VL: DIQLTQSPSSLSASVGDRVTITCKASQNVGTAIVWYQQKPGKAPKVLIYSASTRYTGVPSRFSGSGSGTDFTLTISSLQPEDFATYYCQQYSSSPLTFGQGTKVEIK
notes: also called M34R/P52aF/T97V
For B3, the IC50 in assay [1] was 0.7 nM; in assay [2], 0.08 nM. Besides, the Kd in assay [3] worked out at 3.75 nM.

B4: mAb1.v7.48 Fab (Fab, V domains shown)
VH: EVQLVQSGAEVKKPGASVKVSCKASGFTFTNRWMHWVRQAPGQGLEWIGMIHHNSGITNINEKFKNRVTMTTDTSTSTAYMELRSLRSEDTAVYYCRSDGVYEGYFDYWGQGTLVTVSS
VL: DIQLTQSPSSLSASVGDRVTITCKASQNVGTAIVWYQQKPGKAPKVLIYSASTRYTGVPSRFSGSGSGTDFTLTISSLQPEDFATYYCQQYSSSPLTFGQGTKVEIK
notes: also called N32R/P52aH/T97V
As for B4, the values for the half-maximal inhibitory concentration (IC50) in assay [1] and in assay [2] were 0.42 nM and 0.1 nM, respectively. The molecule further showed a Kd in assay [3] of around 0.1 nM.

B5: mAb1.v7.9 Fab (Fab, V domains shown)
VH: EVQLVQSGAEVKKPGASVKVSCKASGFTFTNNWRHWVRQAPGQGLEWIGMIHMNSGITNINEKFKNRVTMTTDTSTSTAYMELRSLRSEDTAVYYCRSDGVYEGYFDYWGQGTLVTVSS
VL: DIQLTQSPSSLSASVGDRVTITCKASQNVGTAIVWYQQKPGKAPKVLIYSASTRYTGVPSRFSGSGSGTDFTLTISSLQPEDFATYYCQQYSSSPLTFGQGTKVEIK
notes: also called M34R/P52aM/T97V
B5: the IC50 was determined as 0.42 nM in assay [1] and 0.11 nM in assay [2]. In assay [3], this molecule came in with a Kd of around 0.1 nM.

B6: mAb1.v7.16 Fab (Fab, V domains shown)
VH: EVQLVQSGAEVKKPGASVKVSCKASGFTFTNNWRHWVRQAPGQGLEWIGMIHPNSGITNINEKFKNRVTMTTDTSTSTAYMELRSLRSEDTAVYYCRSDGVYEGYFDYWGQGTLVTVSS
VL: DIQLTQSPSSLSASVGDRVTITCKASQNVGTAIVWYQQKPGKAPKVLIYSASTRYTGVPSRFSGSGSGTDFTLTISSLQPEDFATYYCQQYSSSPLTFGQGTKVEIK
notes: also called M34R/T97V
B6: the values for the IC50 in assay [1] and in assay [2] were 0.8 nM and 0.1 nM, respectively. Also, binding in assay [3] was characterised by a dissociation constant (Kd) of 1.4 nM.

One may read the IC50 as the point on the concentration scale where inhibition reaches its midpoint. Lower therefore signals greater potency. One may read the Kd as a measure of binding affinity in units of concentration.

These data come from patent US12365732 (23ANDME, dated 2025).
